Measured values: patent US12415847B2, “ApoM-Fc fusion proteins for treating lung diseases” (Children's Medical Center Corporation, priority 2018, dated 2025)

Columns and labels:
S1P1 receptor [1] = target: T1, S1P1 receptor (Homo sapiens, UniProt P21453); assay: Nanobit split luciferase assay, beta-arrestin coupling; assay type: cell-based; settings: transfected 293A cells; 1000 nM-0.3 nM S1P
T1 construct: expressed in transfected cells; host or cells: Human 293A cells, transient PEI transfection
Description: (§1) FIGS. 5A-5B. Nanobit analysis of Human ApoMFc-S1P, Mouse ApoMFc-S1P, or BSA-S1P (Positive Control). […] BSA-S1P is the well-established activator of the S1PR1 and it was tested whether Human ApoMFc-S1P, Mouse ApoMFc-S1P gave equivalent induction of receptor activation. Data are the means of triplicate wells with the baseline (pre-stimulation) signal subtracted from the final luciferase signal and graphs are expressed with standard deviation.
(§2) The S1P receptors are members of the G-protein coupled receptor (GPCR) superfamily. Receptor activation is characterized by immediate activation of a G-protein complex (alpha-beta-gamma) that activates multiple intracellular signaling pathways and then secondary activation of coupling to the protein beta-arrestin, which may cause receptor internalization and desensitization as well as activation of other intracellular signaling pathways. […]
(§3) There are two general forms of this assay. […] Upon activation of the GPCR, the G-Protein alpha-beta-gamma complex […] and Luciferase activity may be detected by measuring emitted light in the presence of luciferase substrate (luciferin). […] It is notable that G-Protein assay results in decreased relative fluorescence with increased receptor activation, while the Beta-arrestin coupling assay results in increased relative fluorescence with increased receptor activation. […]
Target sequence in this assay (P21453 whole entry): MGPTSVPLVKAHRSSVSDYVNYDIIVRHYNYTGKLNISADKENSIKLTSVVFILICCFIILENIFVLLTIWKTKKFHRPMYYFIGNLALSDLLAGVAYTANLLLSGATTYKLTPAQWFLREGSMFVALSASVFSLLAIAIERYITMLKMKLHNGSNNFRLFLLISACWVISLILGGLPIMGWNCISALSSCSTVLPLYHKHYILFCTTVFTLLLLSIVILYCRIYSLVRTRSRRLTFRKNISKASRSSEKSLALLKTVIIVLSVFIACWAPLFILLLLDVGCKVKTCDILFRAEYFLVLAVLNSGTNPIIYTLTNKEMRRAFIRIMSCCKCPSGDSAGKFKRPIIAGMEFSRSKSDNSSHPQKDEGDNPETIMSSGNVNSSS
Target sequence in this assay (P49407 whole entry partner): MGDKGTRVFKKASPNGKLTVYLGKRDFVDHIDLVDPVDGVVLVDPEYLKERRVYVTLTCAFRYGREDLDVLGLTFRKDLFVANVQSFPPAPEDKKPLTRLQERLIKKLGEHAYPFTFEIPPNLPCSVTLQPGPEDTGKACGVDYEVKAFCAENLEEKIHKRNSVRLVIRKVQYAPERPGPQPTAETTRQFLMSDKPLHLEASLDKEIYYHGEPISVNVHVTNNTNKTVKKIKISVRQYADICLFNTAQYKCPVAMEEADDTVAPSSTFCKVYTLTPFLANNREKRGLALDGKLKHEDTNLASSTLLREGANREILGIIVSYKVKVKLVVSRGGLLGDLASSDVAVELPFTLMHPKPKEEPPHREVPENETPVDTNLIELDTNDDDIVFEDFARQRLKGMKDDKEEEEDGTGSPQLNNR

S1P1 receptor [2] = target: T1, S1P1 receptor; assay: Nanobit split luciferase assay, Gi-alpha coupling; assay type: cell-based; settings: transfected 293A cells; 1000 nM-0.3 nM S1P
Description: as §1, §2, §3
Target sequence in this assay (P21453 whole entry): as the sequence (P21453 whole entry) above

HUVECs = assay: Trans-endothelial electrical resistance (TEER); assay type: cell-based, human; settings: 4 μg/well, 250 nM S1P, 6 hour time point
Description: FIG. 4. Human and Mouse ApoM-Fc-S1P enhanced endothelial Barrier Protection. Human ApoMFc-S1P (4 μg/well, 250 nM S1P), Mouse ApoMFc-S1P (4 μg/well, 250 nM S1P), or BSA-S1P (250 nM S1P; Positive Control) were analyzed using transepithelial/transendothelial electrical resistance (TEER). The results of TEER analysis of HUVECs at the 6 hour time point are shown. BSA-S1P is the well-established activator of the S1PR1 and it was tested whether Human ApoMFc-S1P, Mouse ApoMFc-S1P gave equivalent induction of receptor activation. All results are normalized to individual well baselines (baseline=1), expressed as the mean of triplicate wells, and Standard Deviation (S.D.) is expressed as gray vertical bars over the course of the data set. […]
0.1 ml of Human Umbilical Vascular Endothelial Cells (HUVECS; 200,000 cells/ml in EGM-2 culture medium, Lonza) were seeded into a 96 well electrical conductance chamber (ECIS Cultureware; Applied Biophysics, Inc) pre-coated with 1% Fibronectin resuspended in Saline. After overnight incubation at 37° C./5% CO2, the 96-well plate was placed on the ECIS reader (Applied Biophysics; Ztheta 96-well array station) and baseline resistance was established which represents the quality of Endothelial junction strength or Endothelial barrier function. […]

activation of beta-arrestin coupling to the S1P1 receptor (S1P1 receptor [1]): equivalently activates | activation of Gi-alpha coupling to the S1P1 receptor (S1P1 receptor [2]): equivalently activates
Substance: Human ApoMFc-S1P: Human ApoM-Human IgG1 Fc (hApoM-Fc) loaded with S1P
endothelial barrier protection (TEER) (HUVECs): enhance endothelial Barrier Protection
